From the nanobody polyreactivity screen of Harvey et al. (2022) come the findings set out here.

This data set is described as follows: yeast display, Sf9 membrane polyspecificity reagent, FACS + sequencing; frameworks hold sequencing errors. Summed up: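 In a synthetic yeast display library (Saccharomyces cerevisiae BJ5465), nanobody expression was induced with galactose for 36–48 hours. FACS gates were set low and high (top ~1%) using anti-HA fluorescence for expression and streptavidin fluorescence for binding of the Sf9 membrane reagent. Each polyreactivity label is drawn from the gate of origin.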
Turning to “QVQLVESGGGLVQAGGSLRLSCAASGSTFYTNPMGWYRQAPGKERELVAAISGSGGSTYYADSVKGRFTISRDNAKNTVYLQMNSLKPEYTAVYYCAARSRYYDTRFDYWGQGTQVTVSS”, the “polyreactivity (PSR sort gate)” value is listed as “low polyreactivity”.

For the sequence “QVQLVESGGGLVQAGGSLRLSCAASGSTFYTYTAMGWYRQAPGKERELVAAITWRGGSTYYADSVKGRFTISRDNAKNTVYLQLNSLKPEDTAVYYCNTVHYYRDYDYWGQGTQVTVSS”, the “polyreactivity (PSR sort gate)” value is recorded as “high polyreactivity”. For “QVQLVESGGGLVQAGGSLRLSCAASGSTFYVNAMGWYRQAPGKERELVAAIRYSGGRTYYADSVKGRFTISRDNAKNTVYLQMNSLKPEDTAVYYCAATTYYGGLYTREFDYWGQGTQVTVSS”, the “polyreactivity (PSR sort gate)” value is reported as “low polyreactivity”. As for “QVQLVESGGGLVQAGGSLRLSCAASGSTFYVNAMGWYRQAPGKERYADSVKGRFTISRDNAKNTVYLQMNSLKPEDTAVYYCAAKVPEPPSLDESDYWGQGTQVTVSS”, the “polyreactivity (PSR sort gate)” value is recorded as “low polyreactivity”. For “QVQLVESGGGLVQAGGSLRLSCAASGSTFYVNDMGWYRQAPGKERELVATISSGSSTYYADSVKGRFTISRDNAKNTVYLQMNSLKPEDTAVYYCAADGVAEEGFDARYDYWGQGTQVTVSS” the value was “low polyreactivity”; for “QVQLVESGGGLVQAGGSLRLSCAASGSTFYVNTLGWYRQAPGKERELVAAISGSGTSTYYADSVKGRFTISRDNAKNTVYLQMNSLKPEDTAVYYCNKYQLVRTYGSYSYYYWGQGTQVTVSS”, “high polyreactivity”; for “QVQLVESGGGLVQAGGSLRLSCAASGSTFYVYAMGWYRQAPGKEREFVAAISFSSGSTYYADSVKGRFTISRDNAKNTVYLQMNMMNQEDTAVYDCAARYRYPRYIGYGYGGAFVYWGQGTQVTVSS”, “high polyreactivity”.

Turning to “QVQLVESGGGLVQAGGSLRLSCAASGSTFYVYAMGWYRQAPGKERELVAAIRGGGSTNYADSVKGRFTISRDNAKNTVYLQMNSLKPEDTAVYYCAKLPYTRTYLGSLYDYWGQGTQVTVSS”, the “polyreactivity (PSR sort gate)” value was “high polyreactivity”. On to “QVQLVESGGGLVQAGGSLRLSCAASGSTFYVYGMGWYRQAPGKERELVATISSSGAITYYADSVKGRFTISRDNAKNTVYLQMNSLKPEDTAVYYCARTGSLLSQVWYTYWGQGTQVTVSS”, for which the “polyreactivity (PSR sort gate)” value was “low polyreactivity”. Turning to “QVQLVESGGGLVQAGGSLRLSCAASGSTFYWNVMGWYRQAPGKERELVAAINRSDGSTYYADSVKGRFTISRDNAKNTVYLQMNSLKPEDTAVYFCNAVTKHPQSVPYAYGYWGQGTQVTVSS”, the “polyreactivity (PSR sort gate)” value is “high polyreactivity”. For the sequence “QVQLVESGGGLVQAGGSLRLSCAASGSTFYWYAMGWYRHAPGKEREFVADIDWSGGSTYYADSVKGRFTISLDNAKNTVYLQMNSLKPEDTAVYYCAAVGAAGQDNYWGQGTQVTVSS”, the “polyreactivity (PSR sort gate)” value is “high polyreactivity”. For “QVQLVESGGGLVQAGGSLRLSCAASGSTFYWYAMGWYRQAPGKERELVAAIDSGGSTNYADSVKGRFTISRDNAKNTVYLQMNSLKPEDTAVYYCATVYYTIWDPTYEYDYWGQGTQVTVSS” the value was “low polyreactivity”; for “QVQLVESGGGLVQAGGSLRLSCAASGSTFYWYAMGWYRQAPGKERELVAAISSGGSTYYADSVKGRFTISRDNAKNTVYLQMNSLKPEDTAVYYCAAQTPYYLWYDTGDYWGQGTQVTVSS”, “high polyreactivity”. In the case of “QVQLVESGGGLVQAGGSLRLSCAASGSTFYYGMGWYRQAPGKERELVAAISSRGGTTYYADSVKGRFTISRDNAKNTVYLQMNSLKPEDTAVYYCAAPVPYYVPRRNEGDYWGQGTQVTVSS”, the “polyreactivity (PSR sort gate)” value is “low polyreactivity”. For “QVQLVESGGGLVQAGGSLRLSCAASGSTFYYNAMGWYRQAPGKEREFVAAINWRGGSTYYADSVKGRFTISRDNAKNTVYLQMNSLTPEDTAVYYCAAEEPSTYYYVRSGYDYHFWEMYSWGQGTQVTVSS”, the “polyreactivity (PSR sort gate)” value is “low polyreactivity”. For “QVQLVESGGGLVQAGGSLRLSCAASGSTFYYNAMGWYRQAPGKERELVAAITFTGGSTYADSVKGRFTISRDNAKNTVYLQMNSLKPEDTAVYYCAATIQGHDYLGTGYDYWGQGTQVTVSS” the value was “low polyreactivity”; for “QVQLVESGGGLVQAGGSLRLSCAASGSTFYYNGMGWYRQAPGKERELVAAITWTGDSTYYADSVKGRFTISRDNAKNTVYLQMNCLKPEDTAVYYCAAYYRKTGYDYWGQGTQVTVSS”, “high polyreactivity”. The result for “QVQLVESGGGLVQAGGSLRLSCAASGSTFYYNTMGWYRQAPGKERELVAAISSSGGTTYYADSVKGRFTISRDNAKNTVYLQMNSLKPEDTAVYYCNVATIWYSYARGYGYWGQGTQVTVSS” reads “high polyreactivity”.

Consider “QVQLVESGGGLVQAGGSLRLSCAASGSTFYYNTMGWYRQAPGKERELVAAISWRGGSTYYADSVKGRYTISRDNAKNTVYLQMNSLKPEDTAVYYCAALTYYGSDYWGQGTQVTVSS”, for which the “polyreactivity (PSR sort gate)” value was “high polyreactivity”.

With “QVQLVESGGGLVQAGGSLRLSCAASGSTFYYNVMGSYRQAPGKERELVAAITLSGGSTYADSVKGRFTISRDNAKKTVYLQINSLKPEDTAVYYCAKKGRYGRWGYKFDYWGQGTQVTVSS”, the “polyreactivity (PSR sort gate)” value is listed as “low polyreactivity”. For the sequence “QVQLVESGGGLVQAGGSLRLSCAASGSTFYYYAMGCYRQAPGKERELVAAINSSGGNTYYADSVKGRFTISRDNAKNTVYLQMNCLKPEDTAVYYCATEYYWLQDYDYWGQGTQVTVSS”, the “polyreactivity (PSR sort gate)” value is “low polyreactivity”. In the case of “QVQLVESGGGLVQAGGSLRLSCAASGSTFYYYAMGGYRQAPGKERELVAAINDAGGTNYADSVKGRFTISRDNAKNTVYLQMNSLKPEDTAVYYCAADGRIYLTYHEMEYWGQVTQVTVSS”, the “polyreactivity (PSR sort gate)” value is given as “low polyreactivity”. Turning to “QVQLVESGGGLVQAGGSLRLSCAASGSTFYYYAMGWYRQAPGKEREFVAAISSSTGSTYYADSVKGRFTISRDNAKNTVYLQMNSLKPEDTAVYYCNALTWYTSQDYDYWGQGTQVTVSS”, the “polyreactivity (PSR sort gate)” value was “high polyreactivity”. “QVQLVESGGGLVQAGGSLRLSCAASGSTFYYYAMGWYRQAPGKERELVAAIDRDDRTNYADSVKGRFTISRDNAKNTVYLQMNSLKPEDTAVYNSAADSSERRLLDFDYWGQGTQVTVSS”: the “polyreactivity (PSR sort gate)” value is “low polyreactivity”. As for “QVQLVESGGGLVQAGGSLRLSCAASGSTFYYYAMGWYRQAPGKERELVAAIDWSGESTYYADSVKGRFTISRDKAKKTVYLQMHSLKPEDTAVYYCAADLGYPWGYVLFYKQSISYYYWGQGTQVTVSS”, the “polyreactivity (PSR sort gate)” value is recorded as “low polyreactivity”. As to “QVQLVESGGGLVQAGGSLRLSCAASGSTFYYYAMGWYRQAPGKERELVAAISNRDGRTYYADSVKGRFTISRDNAKNTVYLQMNSLKPEDTAVYYCNAYSYGHYYWGQGTQVTVSS”, the “polyreactivity (PSR sort gate)” value was “high polyreactivity”. The result for “QVQLVESGGGLVQAGGSLRLSCAASGSTFYYYAMGWYRQAPGKERELVAAITKSGGSTYYADSVKGRFTISRDNAKNTVYLQMNSLKPEDTAVYYCAAYLRSGYKFDYWGQGTQVTVSS” reads “low polyreactivity”; that for “QVQLVESGGGLVQAGGSLRLSCAASGSTFYYYAMGWYRQAPGKERELVAAITKSRGSTYYADSVKGRFTISRDNAKNTVYLQMNSLKPEDTAVYDCAAYLRSGYKFDYWGQGTQGTVSS”, “low polyreactivity”; that for “QVQLVESGGGLVQAGGSLRLSCAASGSTFYYYAMGWYRQAPGKERELVASINYSAGRTYYADSVKGRFTISRDNAKNTVYLQMNSLKPEDTAVYYCATGYPYHVNRYYYWGQGTQVTVSS”, “high polyreactivity”.

In the case of “QVQLVESGGGLVQAGGSLRLSCAASGSTFYYYAMGWYRQAPGKERELVATISRSTARTFYADSVKGRFTISRDNAKNTVYLQMNSLKPEDTAVYYCAATSYVSVYPSYYRFGTYGYWGQGTQVTVSS”, the “polyreactivity (PSR sort gate)” value is given as “high polyreactivity”. As for “QVQLVESGGGLVQAGGSLRLSCAASGSTFYYYAMGWYRQAPGKERELVATISSGSSTNYADSVKGRFTISRDNAKNTVYLQMNSLKPEDTAVYYCATDGDPAYPEMEYWGQGTQVTVSS”, the “polyreactivity (PSR sort gate)” value was “low polyreactivity”.

“QVQLVESGGGLVQAGGSLRLSCAASGSTFYYYGMGWYRQAPGKERELVAAINWSGGTTYYADSVKGRFTISRDNAKNTVYLQMNSLKPEDTAVYYCATEHNHLGYYYWGQGTQVTVSS”: the “polyreactivity (PSR sort gate)” value is on record as “low polyreactivity”. Consider “QVQLVESGGGLVQAGGSLRLSCAASGSTFYYYTMGWYRQAPGKERELVATITYRSGNTYYADSVKGRFTISRDNAKNTVYLQMNSLKPEDTAVYYCAALRRVLPYKRYDYWGQGTQVTVSS”, for which the “polyreactivity (PSR sort gate)” value is reported as “high polyreactivity”. Consider “QVQLVESGGGLVQAGGSLRLSCAASGSTFYYYTMGWYRQAPGKERELVDISWDGDSTYSADSVKGRFTISRDNAKNTVYLQMNSLKPEDTAVYYCAAADYYLPDDVSDYVDANFDYWGQGTQVTVSS”, for which the “polyreactivity (PSR sort gate)” value is “low polyreactivity”. For “QVQLVESGGGLVQAGGSLRLSCAASGSTGGYAMGWYRQAPGKERELVARISYSGGSTYYADSVKGRFTISRDNAKNTVYLQMNSLKPEDTAVYYCAARILYRYYYWGQGTQVTVSS” the value was “high polyreactivity”. On to “QVQLVESGGGLVQAGGSLRLSCAASGSTHGYAMGWYRQAPGKERELVAAISLNTGSTYYADSVKGRFTIARDNAKNTVYFQMNSLKPEYTAVYYCNADDYTYATYEYDYWGQGTLVTVSS”, for which the “polyreactivity (PSR sort gate)” value was “low polyreactivity”. For “QVQLVESGGGLVQAGGSLRLSCAASGSTIAYYAMGWYRQAPGKERELVAAISKRGGSTYYADSVKGRFTISRDNAKNTVYLQMNSLKPEDTAGYYCATGRSTDKGYYFWGQGTQVTVSS”, the “polyreactivity (PSR sort gate)” value is “high polyreactivity”. For the sequence “QVQLVESGGGLVQAGGSLRLSCAASGSTIDGYAMGWYRQAPGKEREFVAAISFSSASTYYADSVKGRFTISRDNAKNTVYLQMNSLKPEDTAVYYCNADFFDSGGSIEYDSWGQGSQVTVSS”, the “polyreactivity (PSR sort gate)” value is “low polyreactivity”. For “QVQLVESGGGLVQAGGSLRLSCAASGSTIDYYAMGWYRQAPGKERELVAAIDWSGDSTYYADSVKGRFTISRDNAKNTVYLQMNSLKPEDTAVYYCAADLDSRGTYGRYEYWGQGTQVTVSS” the value was “low polyreactivity”. For the sequence “QVQLVESGGGLVQAGGSLRLSCAASGSTIFPYAMGWYRQAPGKERELVAAITSGGNTNYADSVKGRFTISRDNAKNTVYLQMNSLKPEDTAVYYCAADYFWHYRKYDYWGQGTQVTVSS”, the “polyreactivity (PSR sort gate)” value is “low polyreactivity”. With “QVQLVESGGGLVQAGGSLRLSCAASGSTIGANAMGWSRQAPGKERELVAAISLSGGTSYADSVKGRFTISRDNAKNTVYLQMNSLKPEDTAVYYCAAPGRGWFDWYAHYYWGQGTQVTVSS”, the “polyreactivity (PSR sort gate)” value is given as “low polyreactivity”.
